# Test results published in PMC9812398.
# B1: GFP-L-TOG2-S (domain or fragment)
# chain: KVPAPKTSGNPANSARKPGSAGGPKVGAGASKEGGAGAVDEDDFIKAFTDVPSIQIYSSRELEETLNKIREILSDDKHDWDQRANALKKIRSLLVAGAAQYDCFFQHLRLLDGALKLSAKDLRSQVVREACITVAHLSTVLGNKFDHGAEAIVPTLFNLVPNSAKVMATSGCAAIRFIIRHTHVPRLIPLITSNCTSKSVPVRRRSFEFLDLLLQEWQTHSLERHAAVLVETIKKGIHDADAEARVEARKTYMGLRNHFPGEAETLYNSLEPSYQKSLQTYLKSSGSVASLPQSDRSSSSSQESLNRPFSSKWSTANPSTVAGRVSAGSSKASSLPGSLQRSRSDIDVNAAAGAKAHHAAGQSVRSGRLGAGALNAGSYASLEDTSDKLDGTASEDGRVRAKLSAPLAGMGNAKADSRGRSRTKMVSQSQPGSRSGSPGRVLTTTALSTVSSGVQRVLVNSASAQKRSKIPRSQGCSREASPSRLSVARSSRIPRPSVSQGCSREASRESSRDTSPVRSFQPLGPGYGISQSS
# Experiments:
# [1] = biological target: stabilized microtubules polymerized from cow brain tubulin (cow) (UniProt Q6B856); assay: TIRF microscopy of microtubule end decoration
# [2] = biological target: human full-length GFP-CLASP2α (human) (UniProt O75122); assay: TIRF microscopy of microtubules on DNA origami-clustered protein
molecule,measurement,setting,value
human full-length GFP-CLASP2α (from UniProt O75122-3 1-1515) (natural protein),end brightness,[1],594 a.u.
stabilized microtubules polymerized from cow brain tubulin (from UniProt Q6B856 1-445) (complex),time for which half of the microtubules keep end association,[2],4 h
B1,end brightness,[1],757 a.u.
